Laboratory results from PMC5932363, “Proteinase 3 Interferes With C1q-Mediated Clearance of Apoptotic Cells” (Frontiers in Immunology, 2018).

Target: T1, C1q (complement protein C1q, intact) (human, UniProt P02745 23-245; P02746 28-253; P02747 29-245)
T1 construct: complement C1q subunit A, human; C1q purified from human serum; a hexamer of heterotrimers; complement C1q subunit B, human; complement C1q subunit C, human; also called intact C1q; whole C1q; source: purified from human serum; copies: 6 + 6 + 6
Assay: SPR; BIAcore 3000; PR3 immobilised on a CM5 chip by amine coupling; C1q, gC1q or cC1q as soluble analytes; 50 mM Tris, 150 mM NaCl, 2 mM Ca2+, 0.005% surfactant P20, pH 7.4; flow 20 µl/min; global fit to a 1:1 Langmuir model; apparent KD from koff/kon
Details: both partners purified

T1 sequence (P02745 23-245, chain 1 of 3): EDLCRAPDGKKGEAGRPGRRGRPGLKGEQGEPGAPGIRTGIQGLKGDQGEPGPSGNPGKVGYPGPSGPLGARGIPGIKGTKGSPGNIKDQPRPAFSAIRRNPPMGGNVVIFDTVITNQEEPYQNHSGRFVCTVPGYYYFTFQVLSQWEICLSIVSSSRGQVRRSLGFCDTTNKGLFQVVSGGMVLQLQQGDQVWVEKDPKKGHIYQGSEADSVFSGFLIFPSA
T1 sequence (P02746 28-253, chain 2 of 3): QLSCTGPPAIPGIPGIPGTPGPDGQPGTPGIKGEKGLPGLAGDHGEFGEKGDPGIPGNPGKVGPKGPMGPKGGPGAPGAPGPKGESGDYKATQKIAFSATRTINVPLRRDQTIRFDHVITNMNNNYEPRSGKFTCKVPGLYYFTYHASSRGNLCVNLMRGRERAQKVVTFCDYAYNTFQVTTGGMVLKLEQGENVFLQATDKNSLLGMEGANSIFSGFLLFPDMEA
T1 sequence (P02747 29-245, chain 3 of 3): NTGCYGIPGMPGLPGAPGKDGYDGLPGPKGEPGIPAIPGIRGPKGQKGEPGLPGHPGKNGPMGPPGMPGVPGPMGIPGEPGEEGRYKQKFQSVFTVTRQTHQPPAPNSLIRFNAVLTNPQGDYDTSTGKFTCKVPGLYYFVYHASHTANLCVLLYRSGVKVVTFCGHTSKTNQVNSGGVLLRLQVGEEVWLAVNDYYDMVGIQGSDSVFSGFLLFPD

- Kd: 190 nM
- koff: 0.00151 s⁻¹
- kon: 7800 M⁻¹ s⁻¹
B1: Proteinase 3 (PR3), purified (enzyme, UniProt P24158 28-248, looked up)
chain: IVGGHEAQPHSRPYMASLQMRGNPGSHFCGGTLIHPSFVLTAAHCLRDIPQRLVNVVLGAHNVRTQEPTQQHFSVAQVFLNNYDAENKLNDVLLIQLSSPANLSASVATVQLPQQDQPVPHGTQCLAMGWGRVGAHDPPAQVLQELNVTVVTFFCRPHNICTFVPRRKAGICFGDSGGPLICDGIIQGIDSFVIWGCATRLFPDFFTRVALYVDWIRSTLR
notes: proteinase 3 (myeloblastin), neutrophil-derived serine protease; also called purified PR3; immobilized PR3; source: bought: Athens Research and Technology
